Molecular target: T1, IclR (XyrR, XynR homolog) (Serratia sp. ATCC 39006, UniProt A0A2I5T4I6 1-255)
T1 sequence: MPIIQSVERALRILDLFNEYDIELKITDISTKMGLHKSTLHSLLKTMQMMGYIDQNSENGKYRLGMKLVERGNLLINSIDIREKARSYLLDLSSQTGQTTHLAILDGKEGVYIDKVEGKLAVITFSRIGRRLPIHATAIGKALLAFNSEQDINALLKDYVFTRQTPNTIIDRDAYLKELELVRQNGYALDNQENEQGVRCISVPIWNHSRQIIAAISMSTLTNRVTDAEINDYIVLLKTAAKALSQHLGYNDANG
Experiment: EMSA; complete shift at 0.8 uM IclR (stated protein:DNA 32:1; Methods state probe 5 nM); 10 mM Tris-HCl pH 8, 5 mM DTT, 50 mM KCl, 1 mM MgCl2, 10% glycerol, 0.1% Triton X-100, 30 min at 20 C; 5 nM probe
Conditions: protein: recombinant; tags: 6xHis (pQE80); chain copies: 2; label: Cy5 on LUEGO strand (S13); three strands: S15 (long) pairs with S13 followed by S14; nick between S13 and S14; blunt

B1: yagE promoter LUEGO probe (dsDNA)
DNA 1: CACCACAAATTGCAGTGTTAGTATCATTTCGTTAATGTAGAACTTAGTTCTATAATATAAAACAAAATATCAATGAAGATCGACTGACACATATCGATTGTTGTGA
DNA 2: TCACAACAATCGATATGTGTCAGTCGATCTTCATTGATATTTTGTTTTATATTATAGAACTAAGTTCTACATTAACGAAATGATACTAACACTGCAATTTGTGGTGCCAGACCAGGGCAC
DNA 3: GTGCCCTGGTCTGG
  binding result: binds
